This data set concerns T1, Nc1ncnc2c1ncn2[C@@H]1O[C@H](COP(=O)(O)OP(=O)(O)OP(=O)(O)O)[C@@H](O)[C@H]1O.
T1 construct: RdRp domain residues 275-903 of NS5, cut from the genome polyprotein; E. coli BL21(DE3)-pRIL; 75 kDa
Briefly: purified protein. The data set is classed as biochemical, Zika virus. The conditions noted are these: poly-U 3 μg/mL, ATP 200–2250 μM, 2.5 mM MnCl2, pH 7.5, 30 °C.

The term Km denotes the substrate concentration at which the rate is half of its maximum. Turning to “ZIKV RdRp (ZIKV NS5 RdRp domain) (Zika virus)”, the Km is 561 ± 38 µM.

The values are drawn from publication PMC6444013, “Development of a fluorescence-based method for the rapid determination of Zika virus polymerase activity and the screening of antiviral drugs” (Scientific Reports, 2019).
